The target of experiment [1] is CD40 on the surface of Ramos cells (human, UniProt P25942 21-277). Nature of the experiment: cell-based or functional assay.
The target of experiment [2] is T1, human OX40 on the cell surface (JD/OX40 cells; OX40-expressing T cells) (human, UniProt P43489 29-277).
T1 construct: also called Jurkat Dual reporter cells expressing human OX40
T1 sequence: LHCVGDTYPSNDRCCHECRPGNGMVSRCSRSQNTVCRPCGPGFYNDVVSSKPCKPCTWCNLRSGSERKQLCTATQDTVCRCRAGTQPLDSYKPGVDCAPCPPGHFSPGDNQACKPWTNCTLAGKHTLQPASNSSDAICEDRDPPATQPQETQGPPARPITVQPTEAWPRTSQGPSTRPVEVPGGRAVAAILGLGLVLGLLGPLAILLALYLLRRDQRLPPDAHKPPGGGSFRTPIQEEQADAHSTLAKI
Nature of the experiment: flow cytometry on JD/OX40 cells. (Flow cytometry measures light scatter and fluorescence of single cells or particles in a stream.)

The target in experiment [3] is T2, recombinant human PD-L1 on the surface of NS0/PD-L1 cells (PD-L1-FLAG-GPI) (human, UniProt Q9NZQ7 19-238). Nature of the experiment: flow cytometry; blocking of the binding of FITC-labeled hPD-1-Fc to NS0/PD-L1 cells. From the text:
After washing with and suspending in FACS Buffer, cells were subjected to flow cytometry analysis.

Experiment [4] addresses T1, human OX40 on the cell surface (JD/OX40 …). Nature of the experiment: cell-based or functional assay.
The target in experiment [5] is human PD-L1 on PD-L1-expressing cells of human PBMC cultures (human, UniProt Q9NZQ7 19-290). Nature of the experiment: cell-based or functional assay.
Sequence of human PD-L1 on PD-L1-expressing cells of human PBMC cultures (Q9NZQ7 19-290 limits assumed): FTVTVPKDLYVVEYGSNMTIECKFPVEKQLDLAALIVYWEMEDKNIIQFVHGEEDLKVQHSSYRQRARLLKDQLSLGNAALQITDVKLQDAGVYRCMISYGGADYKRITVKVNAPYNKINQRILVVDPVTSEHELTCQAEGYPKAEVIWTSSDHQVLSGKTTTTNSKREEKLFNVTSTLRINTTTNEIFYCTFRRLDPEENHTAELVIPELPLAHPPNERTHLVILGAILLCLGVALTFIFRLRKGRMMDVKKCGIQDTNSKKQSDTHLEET
The target in experiment [6] is CD33 on the surface of HL-60 cells (human, UniProt P20138 18-364). Kind of experiment: cell-based or functional assay.
Sequence of CD33 on the surface of HL-60 cells (P20138 18-364 limits assumed): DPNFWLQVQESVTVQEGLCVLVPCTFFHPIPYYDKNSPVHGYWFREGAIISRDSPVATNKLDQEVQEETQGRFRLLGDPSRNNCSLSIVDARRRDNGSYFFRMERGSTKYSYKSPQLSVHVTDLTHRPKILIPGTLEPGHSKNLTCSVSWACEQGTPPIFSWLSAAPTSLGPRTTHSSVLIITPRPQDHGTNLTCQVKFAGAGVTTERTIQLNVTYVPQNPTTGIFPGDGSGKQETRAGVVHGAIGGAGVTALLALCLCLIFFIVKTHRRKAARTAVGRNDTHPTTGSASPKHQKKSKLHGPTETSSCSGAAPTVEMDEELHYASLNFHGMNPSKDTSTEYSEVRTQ
Experiment [7] has as its target recombinant human CD33 on the surface of NS0/CD33 cells (CD33-FLAG-GPI) (human). Nature of the experiment: cell-based or functional assay.
A further experiment deals with T3, human PD-L1 (human, UniProt Q9NZQ7 19-238, limits assumed).
T3 construct: also called B7H1; CD274
T3 sequence (Q9NZQ7 19-238 limits assumed): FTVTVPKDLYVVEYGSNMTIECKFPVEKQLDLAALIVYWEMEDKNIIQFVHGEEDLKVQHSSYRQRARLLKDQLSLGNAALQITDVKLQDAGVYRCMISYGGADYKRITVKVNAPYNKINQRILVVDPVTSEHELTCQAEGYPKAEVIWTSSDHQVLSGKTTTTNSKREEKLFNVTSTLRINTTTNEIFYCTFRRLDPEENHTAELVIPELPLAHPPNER
Nature of the experiment: ELISA. Background: ELISA stands for enzyme-linked immunosorbent assay.

In the next experiment the target is T4, human GITR (human, UniProt Q9Y5U5 26-161, limits assumed).
T4 construct: also called TNFRSF18; CD357
T4 sequence: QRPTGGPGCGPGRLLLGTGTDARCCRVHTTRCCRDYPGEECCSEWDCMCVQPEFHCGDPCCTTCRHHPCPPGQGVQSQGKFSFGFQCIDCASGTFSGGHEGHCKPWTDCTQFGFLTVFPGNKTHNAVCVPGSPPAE
Kind of experiment: ELISA.

The target of experiment [8] is T2, recombinant human PD-L1 on the surface …. Nature of the experiment: cell-based or functional assay.
The target in experiment [9] is T5, human GITR on the cell surface (JD/GITR cells; GITR-expressing T cells) (human, UniProt Q9Y5U5 26-241).
T5 sequence: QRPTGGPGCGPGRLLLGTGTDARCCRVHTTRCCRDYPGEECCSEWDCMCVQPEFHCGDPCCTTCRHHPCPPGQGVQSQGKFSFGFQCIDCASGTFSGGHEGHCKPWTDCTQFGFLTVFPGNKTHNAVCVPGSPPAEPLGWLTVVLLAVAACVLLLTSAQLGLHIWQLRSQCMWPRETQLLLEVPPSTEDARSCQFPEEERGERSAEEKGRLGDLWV
Kind of experiment: cell-based or functional assay.

T2 sequence (Q9NZQ7 other isoform, or with tags, fused parts or gaps limits assumed): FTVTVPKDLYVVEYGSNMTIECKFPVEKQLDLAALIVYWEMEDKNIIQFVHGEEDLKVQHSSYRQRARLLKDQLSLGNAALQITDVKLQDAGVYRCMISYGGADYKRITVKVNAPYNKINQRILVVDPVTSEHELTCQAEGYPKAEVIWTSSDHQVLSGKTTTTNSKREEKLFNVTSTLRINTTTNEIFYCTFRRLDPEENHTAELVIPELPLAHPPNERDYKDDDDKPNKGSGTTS
Sequence of CD40 on the surface of Ramos cells (P25942 21-277 limits assumed): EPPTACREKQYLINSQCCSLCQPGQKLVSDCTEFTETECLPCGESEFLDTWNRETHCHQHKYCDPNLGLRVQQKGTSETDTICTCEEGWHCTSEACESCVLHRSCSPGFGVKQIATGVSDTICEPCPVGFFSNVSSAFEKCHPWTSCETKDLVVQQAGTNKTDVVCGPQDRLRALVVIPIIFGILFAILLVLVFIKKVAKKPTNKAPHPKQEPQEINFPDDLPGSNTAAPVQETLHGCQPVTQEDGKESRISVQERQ
Sequence of recombinant human CD33 on the surface of NS0/CD33 cells (CD33-FLAG-GPI) (human) (chain, as listed by the source limits assumed): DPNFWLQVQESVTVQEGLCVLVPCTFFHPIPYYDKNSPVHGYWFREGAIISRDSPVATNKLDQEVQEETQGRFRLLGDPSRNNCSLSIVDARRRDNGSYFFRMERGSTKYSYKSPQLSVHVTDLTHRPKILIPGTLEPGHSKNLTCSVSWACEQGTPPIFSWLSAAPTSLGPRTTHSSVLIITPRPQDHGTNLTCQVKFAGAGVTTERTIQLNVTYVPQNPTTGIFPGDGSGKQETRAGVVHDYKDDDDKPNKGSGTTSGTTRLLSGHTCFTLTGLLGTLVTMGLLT

B1: HuACS2-IgG1.AA (antibody, V domains shown)
VH: QVQLVQSGAEVKKPGSSVKVSCKASGYTFTSYWLHWVRQAPGQGLEWIGRIDPNSGDTKYNEKFKSRATITVDKSTSTAYMELSSLRSEDTAVYYCARYYYGRSYFDYWGQGTTVTVSS
VL: IVLTQSPATLSLSPGERATLSCSASSSVSYMHWYQQKPGQAPRRWIYDTSKLASGVPARFSGSGSGTDYTLTISSLEPEDFAVYYCQQWSSNPLTFGGGTKVEIKR
Turning to B1, the “percentage of CD95-positive population among Ramos cells, 0.5 µg/ml antibody, in the presence of HL-60 cells” value in experiment [1] stood at 0.7%.

B2: HuM195-IgG1 (antibody, V domains shown)
VH: QVQLVQSGAEVKKPGSSVKVSCKASGYTFTDYNMHWVRQAPGQGLEWIGYIYPYNGGTGYNQKFKSKATITADESTNTAYMELSSLRSEDTAVYYCARGRPAMDYWGQGTLVTVSS
VL: DIQMTQSPSSLSASVGDRVTITCRASESVDNYGISFMNWFQQKPGGAPKLLIYAASNQGSGVPSRFSGSGSGTDFTLTISSLQPDDFATYYCQQSKEVPWTFGQGTKVEIKR
notes: Humanized IgG1/kappa, wild-type CH2; also called humanized anti-CD33 IgG1/kappa antibody; anti-CD33
Turning to B2, the binding result in experiment [2] is recorded as “no binding”.

B3: HuPRO2-IgG1.AA (antibody, V domains shown)
VH: VQLVQSGAEVKKPGSSVKVSCKASGYTFTSYGINWVRQAPGQGLEWIGYIYPGSGGPVYNQKFKGRVTLTADKSTSTAYMELSSLRSEDTAVYYCARENYRYWYFDVWGQGTTVTVSS
VL: DIQLTQSPSFLSASVGDRVTITCSASSSVNYMHWFQQKPGKAPKLWIYSTSNLASGVPSRFSGSGSGTEFTLTISSLQPEDFATYYCQQRSSYPLTFGGGTKVEIKR
notes: Humanized IgG1/kappa with L234A/L235A; also called humanized PRO2; Anti-PD-L1 #2
For orientation: IC50 means the midpoint of a concentration-inhibition curve. For the molecule B3, the IC50 in [3] amounted to 0.055 µg/mL.

B4: BS841 (bispecific antibody, human IgG1, kappa, L234A L235A)
heavy: not shown
light: DIQLTQSPSFLSASVGDRVTITCSASSSVNYMHWFQQKPGKAPKLWIYSTSNLASGVPSRFSGSGSGTEFTLTISSLQPEDFATYYCQQRSSYPLTFGGGTKVEIKRTVAAPSVFIFPPSDEQLKSGTASVVCLLNNFYPREAKVQWKVDNALQSGNSQESVTEQDSKDSTYSLSSTLTLSKADYEKHKVYACEVTHQGLSSPVTKSFNRGEC
On to B4, for which, in [4], the “average IL-2 concentration in human PBMC-derived T cells (PHA-L-treated, OKT3-coated plate), 1 µg/ml antibody” value is 1700 and the “average IL-2 concentration, SEB-treated human PBMC, 1 µg/ml antibody” value is 16.5 ng/mL. In experiment [5], the “average IL-2 concentration in human PBMC-derived T cells (PHA-L-treated, OKT3-coated plate), 1 µg/ml antibody” value turned out to be 1700 and the “average IL-2 concentration, SEB-treated human PBMC, 1 µg/ml antibody” value turned out to be 16.5 ng/mL.

B5: HuPRO1-IgG1.AA (antibody, V domains shown)
VH: QVQLVQSGAEVKKPGSSVKVSCKASGFTFSSSYISWVRQAPGQGLEWIAWIYAGTGGTSYNQKFTGRATITVDESTSTAYMELSSLRSEDTAVYYCARHEGVYWYFDVWGQGTTVTVSS
VL: EIVLTQSPATLSLSPGERATLSCSASSSVSYMHWYQQKPGQAPRPWIYDTSNLASGFPARFSGSGSGTDFTLTISSLEPEDFAVYYCHQRSSYPWTFGGGTKVEIKR
notes: Humanized IgG1/kappa with L234A/L235A; Heavy chain built from VH and the constant exons of pHuM195-IgG1; also called humanized PRO1; anti-PD-L1
With B5, the “average IL-2 concentration in PBMC-derived T cells of donor 4143, 1 µg/ml antibody” value in [5] is 1450 pg/mL. The IC50 in [3] is 0.106 µg/mL.

B6: HuPRO5-IgG1.AA (antibody, V domains shown)
VH: QVQLQESGPGLVKPSQTLSLTCTVSGDSISSGYWNWIRQPPGKGLEYMGYISYTGSTYSNPSLKSRVTISRDTSKNQFSLKLSSVTAADTAVYYCARSQNWERAWFAYWGQGTLVTVSS
VL: DIQMTQSPSSLSASVGDRVTITCSASSSVSYMHWYQQKPGKAPKLWIYDTSKLASGVPSRFSGSGSGTDFTLTISSLQPEDFATYYCFQGSGYPFTFGGGTKVEIKR
notes: also called humanized PRO5; Anti-PD-L1 #5
As to B6, the IC50 in [3] was determined as 0.087 µg/mL.

B7: BS828 (bispecific antibody, human IgG1, kappa, L234A L235A)
heavy: not shown
light: DIQMTQSPSSLSASVGDRVTITCRASESVDNYGISFMNWFQQKPGGAPKLLIYAASNQGSGVPSRFSGSGSGTDFTLTISSLQPDDFATYYCQQSKEVPWTFGQGTKVEIKRTVAAPSVFIFPPSDEQLKSGTASVVCLLNNFYPREAKVQWKVDNALQSGNSQESVTEQDSKDSTYSLSSTLTLSKADYEKHKVYACEVTHQGLSSPVTKSFNRGEC
On to B7, for which the “percentage of CD95-positive population among Ramos cells, 0.5 µg/ml antibody, in the presence of HL-60 cells” value in experiment [1] and in experiment [6] was 58.4% each time.

B8: BS824 (bispecific antibody, human IgG1, kappa, L234A L235A)
heavy: not shown
light: DIQMTQSPSSLSASVGDRVTITCRASESVDNYGISFMNWFQQKPGGAPKLLIYAASNQGSGVPSRFSGSGSGTDFTLTISSLQPDDFATYYCQQSKEVPWTFGQGTKVEIKRTVAAPSVFIFPPSDEQLKSGTASVVCLLNNFYPREAKVQWKVDNALQSGNSQESVTEQDSKDSTYSLSSTLTLSKADYEKHKVYACEVTHQGLSSPVTKSFNRGEC
As to B8, the “average relative luciferase unit (RLU) in JD/OX40 cells, 1 µg/ml antibody, with NS0/CD33 cells” value in experiment [4] and in experiment [7] was 21700 RLU each time.

B9: BS853 (bispecific antibody, human IgG1, kappa, L234A L235A)
heavy: not shown
light: EIVLTQSPATLSLSPGERATLSCSASSSVSYMHWYQQKPGQAPRPWIYDTSNLASGFPARFSGSGSGTDFTLTISSLEPEDFAVYYCHQRSSYPWTFGGGTKVEIKRTVAAPSVFIFPPSDEQLKSGTASVVCLLNNFYPREAKVQWKVDNALQSGNSQESVTEQDSKDSTYSLSSTLTLSKADYEKHKVYACEVTHQGLSSPVTKSFNRGEC
notes: Transiently expressed in HEK293 cells; Cysteines at position 44 of VH and 100 of VL of the anti-GITR scFv; also called modified bispecific antibody encoded in pBS853; BS809 with disulfide-linked anti-GITR scFv
Turning to B9, the binding result with human PD-L1 and with human GITR was “binds” throughout.

B10: BS813 (bispecific antibody, human IgG1, kappa, L234A L235A)
heavy: not shown
light: EIVLTQSPATLSLSPGERATLSCSASSSVSYMHWYQQKPGQAPRPWIYDTSNLASGFPARFSGSGSGTDFTLTISSLEPEDFAVYYCHQRSSYPWTFGGGTKVEIKRTVAAPSVFIFPPSDEQLKSGTASVVCLLNNFYPREAKVQWKVDNALQSGNSQESVTEQDSKDSTYSLSSTLTLSKADYEKHKVYACEVTHQGLSSPVTKSFNRGEC
On to B10, for which the “average IL-2 concentration in human PBMC-derived T cells (PHA-L-treated, OKT3-coated plate), 1 µg/ml antibody” value in experiment [4] and in experiment [5] was 2200 in each case. The “average IL-2 concentration, SEB-treated human PBMC, 1 µg/ml antibody” value in [4] and in experiment [5] was 17.7 ng/mL in each case. For the same molecule, the “average relative luciferase unit (RLU) in JD/OX40 cells, 1 µg/ml antibody, with NS0/PD-L1 cells” value in experiment [4] and in experiment [8] was 23700 RLU each time.

B11: BS809 (bispecific antibody, human IgG1, kappa, L234A L235A)
heavy: not shown
light: EIVLTQSPATLSLSPGERATLSCSASSSVSYMHWYQQKPGQAPRPWIYDTSNLASGFPARFSGSGSGTDFTLTISSLEPEDFAVYYCHQRSSYPWTFGGGTKVEIKRTVAAPSVFIFPPSDEQLKSGTASVVCLLNNFYPREAKVQWKVDNALQSGNSQESVTEQDSKDSTYSLSSTLTLSKADYEKHKVYACEVTHQGLSSPVTKSFNRGEC
B11: the “average relative luciferase unit (RLU) in the culture supernatants of JD/GITR cells, 1 µg/ml antibody, with NS0/PD-L1 cells” value in [8] and in experiment [9] was 1.04e+06 RLU each time. The “average IL-2 concentration in PBMC-derived T cells of donor 4143, 1 µg/ml antibody” value in experiment [9] and in experiment [5] was 4200 pg/mL throughout.

B12: HuOHX14DS-IgG1.AA (antibody, V domains shown)
VH: QVQLVQSGAEVKKPGSSVKVSCKASGYTFTSYIMHWVRQAPGQGLEWIGYINPYNSGTKYNEKFKGRVTITSDKSTSTAYMELSSLRSEDTAVYYCAHYYGSTFTMDYWGQGTTVTVSS
VL: DIQMTQSPSSLSASVGDRVTITCRASQDIRTYLNWYQQKPGKVPKLLIYYTSRLHSGVPSRFSGSGSGTDYTLTISSLQPEDVATYYCQQGNTLPWTFGGGTKVEIKR
On to B12, for which, in experiment [4], the “average relative luciferase unit (RLU) in JD/OX40 cells, 1 µg/ml antibody, with NS0/CD33 cells” value stood at 8700 RLU and the “average relative luciferase unit (RLU) in JD/OX40 cells, 1 µg/ml antibody, with NS0/PD-L1 cells” value was found to be 5920 RLU.

(Values after patent US20220251214A1 (JN BIOSCIENCES, published 2022).)
